The assay addresses biotinylated GST-importin α2 (UniProt P52293 1-529, biotinylated). The assay can be described thus: AlphaScreen or HTRF; about 30 nM His6-PKC-θ and increasing concentrations of biotinylated GST-importins; in triplicate; three parameter sigmoidal curves fitted; quenched values in the hooking zone excluded. Conditions: both partners purified. (Bead proximity is the source of the signal in Alpha formats.)

B1: His6-PKC-θ (protein kinase C theta) (enzyme)
chain: MSPFLRIGLSNFDCGSCQSCQGEAVNPYCAVLVKEYVESENGQMYIQKKPTMYPPWDSTFDAHINKGRVMQIIVKGKNVDLISETTVELYSLAERCRKNNGKTEIWLELKPQGRMLMNARYFLEMSDTKDMNEFETEGFFALHQRRGAIKQAKVHHVKCHEFTATFFPQPTFCSVCHEFVWGLNKQGYQCRQCNAAIHKKCIDKVIAKCTGSAINSRETMFHKERFKIDMPHRFKVYNYKSPTFCEHCGTLLWGLARQGLKCDACGMNVHHRCQTKVANLCGINQKLMAEALAMIESTQQARCLRDTEQIFREGPVEIGLPCSIKNEARPPCLPTPGKREPQGISWESPLDEVDKMCHLPEPELNKERPSLQIKLKIEDFILHKMLGKGSFGKVFLAEFKKTNQFFAIKALKKDVVLMDDDVECTMVEKRVLSLAWEHPFLTHMFCTFQTKENLFFVMEYLNGGDLMYHIQSCHKFDLSRATFYAAEIILGLQFLHSKGIVYRDLKLDNILLDKDGHIKIADFGMCKENMLGDAKTNTFCGTPDYIAPEILLGQKYNHSVDWWSFGVLLYEMLIGQSPFHGQDEEELFHSIRMDNPFYPRWLEKEAKDLLVKLFVREPEKRLGVRGDIRQHPLFREINWEELERKEIDPPFRPKVKSPFDCSNFDKEFLNEKPRLSFADRALINSMDQNMFRNFSFMNPGMERLIS
notes: protein kinase C theta (PKC-θ); also called recombinant purified His6-PKC-θ; source: recombinant, purified
As for B1, the dissociation constant Kd was determined as 2.75 nM.

In general, Kd refers to the equilibrium constant for the complex coming apart.

For the origin of these results see PMC8946217, “Selective Targeting of Protein Kinase C (PKC)-θ Nuclear Translocation Reduces Mesenchymal Gene Signatures and Reinvigorates Dysfunctional CD8^+ T Cells in Immunotherapy-Resistant and Metastatic Cancers” (Cancers, 2022).
